Assay results published in US20250361274A1, “PEPTIDE AND PEPTIDE-CONTAINING AGENT” (PEPTIDREAM INC., priority 2022, published 2025).
Numbered stars: 1 amine (or outer) side, 2 acyl side, 3 side chain; on linkers, the order of the positions; unused ones are H or OH. Bridge positions count the residues as written; N and C are the ends. Square brackets hold non-standard residues; d marks the D form. Ends that are not written are not given here. Peptide text beside a SMILES is read from it. KCOpipzaa = N6-(4-(carboxymethyl)piperazine-1-carbonyl)-L-lysine, O=C(NCCCC[C@H](N[*:1])C(=O)[*:2])N1CCN(CC(=O)[*:3])CC1; F3aa = (S)-2-amino-3-[3-(carboxymethyl)phenyl]propanoic acid, O=C([C@H](Cc1cccc(CC(=O)[*:3])c1)N[*:1])[*:2]; 3Pal(6-Ph) = N[C@@H](Cc1ccc(-c2ccccc2)nc1)C(=O)O; Phe(4-COOH) = N[C@@H](Cc1ccc(C(=O)O)cc1)C(=O)O; NMePhe(4-Me) = CN[C@@H](Cc1ccc(C)cc1)C(=O)O; Bip = N[C@@H](Cc1ccc(-c2ccccc2)cc1)C(=O)O; Phe(4-F) = N[C@@H](Cc1ccc(F)cc1)C(=O)O; Ala(4-THP) = N[C@@H](CC1CCOCC1)C(=O)O; cisHyp = O=C(O)[C@@H]1C[C@H](O)CN1; NMeF = CN[C@@H](Cc1ccccc1)C(=O)O; hCit = NC(=O)NCCCC[C@H](N)C(=O)O; 4Pal = N[C@@H](Cc1ccncc1)C(=O)O; Aad = N[C@@H](CCCC(=O)O)C(=O)O; Cha = N[C@@H](CC1CCCCC1)C(=O)O; βAla = NCCC(=O)O

Key:
[1] = molecular target: T1, BMP4 (Homo sapiens, UniProt P12644); experiment: BMP4 signal transduction inhibitory activity: SMAD1 phosphorylation by BMP4 stimulus, AlphaLISA SureFire, A549 cells; assay type: cell-based; settings: A549 cells
T1 sequence (P12644 293-408): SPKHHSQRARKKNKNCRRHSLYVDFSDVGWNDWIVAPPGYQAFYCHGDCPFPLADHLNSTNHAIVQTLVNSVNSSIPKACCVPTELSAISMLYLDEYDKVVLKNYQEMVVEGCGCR
Protocol: In the present Example, a BMP4 signal transduction inhibitory activity of each peptide consisting of an amino acid sequence set forth in any of SEQ ID NOs: 5 to 240 and 243 to 421 synthesized in Example 10 was verified by phosphorylation of SMAD1 caused by BMP4 stimulus. A549 cells were cultured in MEM (Thermo Fisher Scientific) containing 10% FBS (Thermo Fisher Scientific), 1×Non-essential amino acids (Thermo Fisher Scientific), and 50 μg/mL Gentamicin. After TrypLE (Gibco) was used to peel the cells, seeding was performed in a 96-well plate for adhesion cells so that the number of cells would be 20,000 per well, followed by culturing for 48 hours. After the cells were cultured as described above, the culture medium was replaced with a peptide solution or recombinant Human Noggin Protein (R&D) solution as a positive control diluted to various concentrations in a nutrition-starved culture medium containing 0.1% BSA (Sigma) instead of FBS Thirty minutes after culturing, […], to stimulate it for 60 minutes. The culture medium was removed and the cells were lysed with Lysis Buffer provided with AlphaLISA (registered trademark) SureFire (registered trademark) Ultra SMAD1 (p-[…]/465) Assay kit (PerkinElmer). According to the protocol of the kit, a signal was detected using SpectraMax (registered trademark) Paradigm (registered trademark) multimode microplate reader (Molecular Devices). The obtained signal was analysed using GraphPad Prism (GraphPad Software). The % inhibition was calculated by considering non-stimulation as 100% inhibition and BMP stimulation only as 0% inhibition. Regarding SEQ ID NOs: 5 to 187, the concentrations of the peptides synthesized in the same manner as in Example 2 (shown as 2 in the row of Synthesis) were 0.02 nM, 0.2 nM, and 2 nM, and the concentrations of the peptides synthesized in the same manner as in Example 1 (shown as 1 in the row of Synthesis) were 0.2 nM, 2 nM, and 20 nM. The evaluation results were based on the results of evaluation using the peptides synthesized in the same manner as in Example 2. […] Regarding SEQ ID NOs: 243 to 321, the test was performed at the concentrations described in Table 6. […] Regarding SEQ ID NOs: 322 to 421, the test was performed at the concentrations described in Table 7. […] The evaluation tests of the signal transduction inhibitory activities of SEQ ID NOs: 87, 177, and 181 are as follows. Specifically, the inhibitory activity of BMP4 was evaluated in the same manner as in Example 11 that used A549 cells. Eight concentrations of the peptides were used at a common ratio of 1/3 starting from 2 nM. The inhibitory activity of BMP7 was evaluated in the same manner as in Example 12. Eight concentrations of the peptides were used at a common ratio of 1/3 starting from 100 nM. Note that recombinant Human Noggin Protein (R&D) as a positive control was used at the same concentration as that of the peptide. […] The inhibitory activity of BMP7 was evaluated using eight concentrations of the peptides at a common ratio of 1/3 starting from 1,000 nM in the same manner as in Example 12.

[2] = molecular target: T2, BMP7 (Homo sapiens, UniProt P18075); experiment: BMP7 signal transduction inhibitory activity: SMAD1 phosphorylation by BMP7 stimulus, A549 cells; assay type: cell-based
T2 sequence (P18075 293-431): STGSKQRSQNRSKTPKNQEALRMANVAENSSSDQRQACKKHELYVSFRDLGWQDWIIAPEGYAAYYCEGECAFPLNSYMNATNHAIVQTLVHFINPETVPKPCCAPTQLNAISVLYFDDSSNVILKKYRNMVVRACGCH
Protocol: In the present Example, BMP7 signal transduction inhibitory activity of each peptide consisting of an amino acid sequence set forth in any of SEQ ID NOs: 5 to 240 and 243 to 421 synthesized in Example 10 was verified by phosphorylation of SMAD1 caused by BMP7 stimulus. The evaluation was performed using 10 nM of BMP7 instead of BMP 4. Regarding SEQ ID NOs: 5 to 240, the concentrations of the peptides synthesized in the same manner as in Example 2 (shown as 2 in the row of Synthesis) were 1 nM, 10 nM, and 100 nM, and the concentrations of the peptides synthesized in the same manner as in Example 1 (shown as 1 in the row of Synthesis) were 10 nM, 100 nM, and 1,000 nM, similarly with Example 11. […] Regarding SEQ ID NOs: 243 to 273 and SEQ ID NOs: 299 to 321, the test was performed at the concentrations (10, 100, 1,000 nM) described in Table 6. […] Regarding SEQ ID NOs: 274 to 298, the test was performed at the concentrations (100, 300, 1,000 nM) described in Table 6. […] Regarding SEQ ID NOs: 322 to 370 and SEQ ID NOs: 393 to 421, the test was performed at the concentrations (1, 10, 100 nM). […] Regarding SEQ ID NOs: 371 to 391, the test was performed at the concentrations (10, 30, 90 nM). […] The evaluation tests of the signal transduction inhibitory activities of SEQ ID NOs: 87, 177, and 181 are as follows. Specifically, the inhibitory activity of BMP4 was evaluated in the same manner as in Example 11 that used A549 cells. Eight concentrations of the peptides were used at a common ratio of 1/3 starting from 2 nM. The inhibitory activity of BMP7 was evaluated in the same manner as in Example 12. Eight concentrations of the peptides were used at a common ratio of 1/3 starting from 100 nM. Note that recombinant Human Noggin Protein (R&D) as a positive control was used at the same concentration as that of the peptide. […] The inhibitory activity of BMP7 was evaluated using eight concentrations of the peptides at a common ratio of 1/3 starting from 1,000 nM in the same manner as in Example 12.

[3] = class of inhibition of SMAD1 phosphorylation by BMP4 stimulus, AlphaLISA

| Compound | aLISA BMP4 [1, 3] | other results |
| --- | --- | --- |
| 11 (ARVYVDRFKYPFYFFSCG; not fully specified; MOD_RES 8 F represents (S)-3-(1,1'-Biphenyl-4-yl)-2-aminopropanoic acid(Bph); MOD_RES 12 F represents (S)-3-(1,1'-Biphenyl-4-yl)-2-aminopropanoic acid(Bph); MOD_RES 14 F represents (S)-4-(2-amino-2-carboxyethyl)benzoic acid(F4COO); MOD_RES 15 F represents (S)-4-(2-amino-2-carboxyethyl)benzoic acid(F4COO)) [compound 11] |  | aLISA BMP4 ([1]; SMAD1 phosphorylation, peptides of Synthesis 2, peptide 0.02, 0.2, 2 nM): A (showed an inhibitory activity of 50% or more in a zone to which the peptide was added to in an amount of 0.2 nM); aLISA BMP7 ([2]; A549 cells, 10 nM BMP7, peptides of Synthesis 2, peptide 1, 10, 100 nM): C (showed less than 50% of inhibitory activity in 10 nM-addition zone and showed 50% or more of inhibitory activity in 100 nM-addition zone) |
| 163 ({CH2CO}-ERVYVDR[Bip]SYY[Bip]Y[Phe(4-COOH)][Phe(4-COOH)]SC[βAla][dE]-OH; thioether N-17; not fully specified) [compound 163] | A (showed an inhibitory activity of 50% or more in a zone to which the peptide was added to in an amount of 0.2 nM) |  |
| 164 ({CH2CO}-ERVYVDR[Bip]SYV[Bip]Y[Phe(4-COOH)][Phe(4-COOH)]HC[βAla][dE]-OH; thioether N-17; not fully specified) [compound 164] | A (showed an inhibitory activity of 50% or more in a zone to which the peptide was added to in an amount of 0.2 nM) |  |
| 169 ({CH2CO}-E[hCit]VY[Ala(4-THP)]DR[Bip]SYV[Bip]Y[Phe(4-COOH)][Phe(4-COOH)]HC[βAla][dE]-OH; thioether N-17; not fully specified) [compound 169] | C (showed an inhibitory activity of less than 50% in 0.2 nM-addition zone and showed an inhibitory activity of 50% or more in 2 nM-addition zone were defined as B or C) |  |
| 178 ({CH2CO}-ERV[Phe(4-COOH)][Ala(4-THP)]DR[Bip]PYV[Bip]Y[Phe(4-COOH)][Phe(4-COOH)]SC[βAla][dE]-OH; thioether N-17; not fully specified) [compound 178] | A (showed an inhibitory activity of 50% or more in a zone to which the peptide was added to in an amount of 0.2 nM) |  |
| 179 ({CH2CO}-ERV[Phe(4-COOH)][Ala(4-THP)][KCOpipzaa]R[Bip]PY[F3aa][Bip]Y[Phe(4-COOH)][Phe(4-COOH)]SC[βAla][dE]-OH; thioether N-17; not fully specified) [compound 179] | C (showed an inhibitory activity of less than 50% in 0.2 nM-addition zone and showed an inhibitory activity of 50% or more in 2 nM-addition zone were defined as B or C) |  |
| 180 ({CH2CO}-ERV[Phe(4-COOH)][Ala(4-THP)][KCOpipzaa]R[Bip]PY[cisHyp][Bip]Y[Phe(4-COOH)][Phe(4-COOH)]SC[βAla][dE]-OH; thioether N-17; not fully specified) [compound 180] | A (showed an inhibitory activity of 50% or more in a zone to which the peptide was added to in an amount of 0.2 nM) |  |
| 182 ({CH2CO}-ERVY[Ala(4-THP)][KCOpipzaa]R[Bip]PY[F3aa][Bip]Y[Phe(4-COOH)][Phe(4-COOH)]SC[βAla][dE]-OH; thioether N-17; not fully specified) [compound 182] | A (showed an inhibitory activity of 50% or more in a zone to which the peptide was added to in an amount of 0.2 nM) |  |
| 183 ({CH2CO}-ERVY[Ala(4-THP)][KCOpipzaa]R[Bip]PY[cisHyp][Bip]Y[Phe(4-COOH)][Phe(4-COOH)]SC[βAla][dE]-OH; thioether N-17; not fully specified) [compound 183] | A (showed an inhibitory activity of 50% or more in a zone to which the peptide was added to in an amount of 0.2 nM) |  |
| 184 ({CH2CO}-ERVY[Ala(4-THP)][KCOpipzaa]R[Bip]PYP[Bip]Y[Phe(4-COOH)][Phe(4-COOH)]SC[βAla][dE]; thioether N-17) [compound 184] | A (showed an inhibitory activity of 50% or more in a zone to which the peptide was added to in an amount of 0.2 nM) |  |
| 185 ({CH2CO}-E[KCOpipzaa]V[Phe(4-COOH)][Ala(4-THP)]DR[Bip]PY[F3aa][Bip][Phe(4-F)][Phe(4-COOH)][4Pal]SC[βAla][dE]; thioether N-17) [compound 185] | C (showed an inhibitory activity of less than 50% in 0.2 nM-addition zone and showed an inhibitory activity of 50% or more in 2 nM-addition zone were defined as B or C) |  |
| 186 ({CH2CO}-E[KCOpipzaa]V[Phe(4-COOH)][Ala(4-THP)]DR[Bip]PY[cisHyp][Bip][Phe(4-F)][Phe(4-COOH)][4Pal]SC[βAla][dE]; thioether N-17) [compound 186] | A (showed an inhibitory activity of 50% or more in a zone to which the peptide was added to in an amount of 0.2 nM) |  |
| 187 ({CH2CO}-E[KCOpipzaa]V[Phe(4-COOH)][Ala(4-THP)]DR[Bip]PYP[Bip][Phe(4-F)][Phe(4-COOH)][4Pal]SC[βAla][dE]; thioether N-17) [compound 187] | C (showed an inhibitory activity of less than 50% in 0.2 nM-addition zone and showed an inhibitory activity of 50% or more in 2 nM-addition zone were defined as B or C) |  |
| Cc1ccc(C[C@H]2C(=O)N[C@@H](CC(C)C)C(=O)N3C[C@@H](O)C[C@H]3C(=O)N[C@H](C(=O)NCCC(=O)N[C@H](CCC(=O)O)C(=O)O)CSCC(=O)N[C@@H](Cc3ccc(F)cc3)C(=O)NCC(=O)N(C)[C@@H](Cc3ccccc3)C(=O)NCC(=O)N[C@@H](Cc3ccc(-c4ccccc4)nc3)C(=O)NCC(=O)N[C@@H](CC(=O)O)C(=O)N[C@@H](CCC(=O)O)C(=O)N[C@@H](CC3CCCCC3)C(=O)N[C@@H](CCCC(=O)O)C(=O)N2C)cc1 [Peptide 417] ({CH2CO}-[Phe(4-F)]G[NMeF]G[3Pal(6-Ph)]GDE[Cha][Aad][NMePhe(4-Me)]L[cisHyp]C[βAla][dE]-OH; thioether N-14) |  | IC50 ([2]; Table 2-2, 277 from 1,000 nM (1/3), 417 from 300 nM (1/4)): 0.0156 µM |
